From patent US20090088376A1, “DENDRIMER BASED COMPOSITIONS AND METHODS OF USING THE SAME” (priority 2007, published 2009)

Tested on: A431 cells
Assay: Binding of dendrimer-EGF conjugate by flow cytometry
Format: cell-based
Description: Cell culture and treatment. The cell lines were cultured in Dulbecco's Modified Eagle Medium (DMEM) supplemented with 10% fetal calf serum (FCS), 100 units/ml penicillin, and 100 μg/ml streptomycin. Cells were allowed to grow in a monolayer in tissue culture flasks incubated at 37° C. in a humidified atmosphere containing 5% CO2 and 95% air. Cells plated in 24-well plates (for flow cytometry), 35 mm dishes with glass cover slips in the bottom (for confocal microscopy) and 96 well plates (for ‘FACE’ and ‘XTT’ assays) were treated with the conjugate under the specified incubation conditions. Excess free EGF was added 30 min prior to the conjugates for blocking the binding of the latter. Competition assay with free EGF was conducted at 4° C. by simultaneously exposing the conjugate and free EGF.
Flow Cytometry and Confocal Microscopy. The FITC fluorescence was quantified on a f a BECKMAN-COULTER EPICS-XL MCL flow cytometer, and the data were analyzed using EXPO32 software (BECKMAN-COULTER, Miami, Fla.). The viable cells were gated, and the mean FL1-fluorescence of 10,000 cells was quantified. […] Cells were incubated with the conjugate in serum-free medium under the specified conditions and analyzed using an OLYMPUS FLUOVIEW 500 laser scanning confocal microscope. FITC fluorescence was excited with a 488 nm blue argon laser and emission was measured through a 505-525 nm barrier filter. […]

B1: EGF-FI (conjugate, UniProt P01133 23-1207, looked up)
Pro-epidermal growth factor: PQHWSCPEGTLAGNGNSTCVGPAPFLIFSHGNSIFRIDTEGTNYEQLVVDAGVSVIMDFHYNEKRIYWVDLERQLLQRVFLNGSRQERVCNIEKNVSGMAINWINEEVIWSNQQEGIITVTDMKGNNSHILLSALKYPANVAVDPVERFIFWSSEVAGSLYRADLDGVGVKALLETSEKITAVSLDVLDKRLFWIQYNREGSNSLICSCDYDGGSVHISKHPTQHNLFAMSLFGDRIFYSTWKMKTIWIANKHTGKDMVRINLHSSFVPLGELKVVHPLAQPKAEDDTWEPEQKLCKLRKGNCSSTVCGQDLQSHLCMCAEGYALSRDRKYCEDVNECAFWNHGCTLGCKNTPGSYYCTCPVGFVLLPDGKRCHQLVSCPRNVSECSHDCVLTSEGPLCFCPEGSVLERDGKTCSGCSSPDNGGCSQLCVPLSPVSWECDCFPGYDLQLDEKSCAASGPQPFLLFANSQDIRHMHFDGTDYGTLLSQQMGMVYALDHDPVENKIYFAHTALKWIERANMDGSQRERLIEEGVDVPEGLAVDWIGRRFYWTDRGKSLIGRSDLNGKRSKIITKENISQPRGIAVHPMAKRLFWTDTGINPRIESSSLQGLGRLVIASSDLIWPSGITIDFLTDKLYWCDAKQSVIEMANLDGSKRRRLTQNDVGHPFAVAVFEDYVWFSDWAMPSVMRVNKRTGKDRVRLQGSMLKPSSLVVVHPLAKPGADPCLYQNGGCEHICKKRLGTAWCSCREGFMKASDGKTCLALDGHQLLAGGEVDLKNQVTPLDILSKTRVSEDNITESQHMLVAEIMVSDQDDCAPVGCSMYARCISEGEDATCQCLKGFAGDGKLCSDIDECEMGVPVCPPASSKCINTEGGYVCRCSEGYQGDGIHCLDIDECQLGEHSCGENASCTNTEGGYTCMCAGRLSEPGLICPDSTPPPHLREDDHHYSVRNSDSECPLSHDGYCLHDGVCMYIEALDKYACNCVVGYIGERCQYRDLKWWELRHAGHGQQQKVIVVAVCVVVLVMLLLLSLWGAHYYRTQKLLSKNPKNPYEESSRDVRSRRPADTEDGMSSCPQPWFVVIKEHQDLKNGGQPVAGEDGQAADGSMQPTSWRQEPQLCGMGTEQGCWIPVSSDKGSCPQVMERSFHMPSYGTQTLEGGVEKPHSLLSANPLWQQRALDPPHQMELTQ
modifications: Pro-epidermal growth factor fluorescein label
100 nM conjugate, 1 h at 4° C., value listed under the conjugate displaced, read-out: concentration of free EGF giving 50% inhibition of binding of the labeled conjugate
  IC50: 60 nM
Double reciprocal binding plots of normalized fluorescence
  apparent KA: 15 nM
